The values below come from the supplement of paper PMC5998384.

In data set [1] the test system is HeLa Kyoto. The data set can be described thus: melting temperature (median over replicates), in situ; higher = more thermally stable.
The test system of data set [2] is HeLa Kyoto. Put plainly: solubility change mitosis vs G1/S (difference of NP-40 vs SDS log2 ratios) (log2 ratio difference); higher = more soluble in mitosis.
Data set [3] relates to HeLa Kyoto. Put plainly: solubility in G1/S (NP-40 vs SDS abundance) (log2 ratio); higher = more soluble. The conditions noted are these: cell cycle stage: G1/S.
The subject of data set [4] is HeLa Kyoto. The data set can be described thus: thermal stability score vs G1/S (z-score of summed log2 fold changes over temperatures); higher = more thermally stable than in G1/S.
Where [5] appears, read: cell cycle stage: early G1 (4.5 h after nocodazole release).
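For melting temperature (median over replicates), in situ in this document: HeLa Kyoto cells synchronized by double thymidine or nocodazole block, proteins quantified by TMT10plex mass spectrometry, three independent biological replicates.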
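For solubility change mitosis vs G1/S (difference of NP-40 vs SDS log2 ratios) in this document: synchronized HeLa Kyoto cells (double thymidine block for G1/S, nocodazole release for mitosis), protein amounts in NP-40 versus SDS lysates quantified by mass spectrometry, three biological replicates.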
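For solubility in G1/S (NP-40 vs SDS abundance) in this document: HeLa Kyoto cells arrested at G1/S by double thymidine block, proteins quantified by TMT10plex mass spectrometry in mild NP-40 versus SDS extracts, three biological replicates.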
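For thermal stability score vs G1/S (z-score of summed log2 fold changes over temperatures) in this document: synchronized HeLa Kyoto cells, proteins quantified by TMT10plex mass spectrometry, three biological replicates, mitosis taken 0.5 h after nocodazole release, G1/S directly after double thymidine block.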

For the sequence “MATDELATKLSRRLQMEGEGGGETPEQPGLNGAAAAAAGAPDEAAEALGSADCELSAKLLRRADLNQGIGEPQSPSRRVFNPYTEFKEFSRKQIKDMEKMFKQYDAGRDGFIDLMELKLMMEKLGAPQTHLGLKNMIKEVDEDFDSKLSFREFLLIFRKAAAGELQEDSGLCVLARLSEIDVSSEGVKGAKSFFEAKVQAINVSSRFEEEIKAEQEERKKQAEEMKQRKAAFKELQSTFK [EFHD2]”, the melting temperature was 52.5 °C in data set [1] (cell cycle stage: G1/S) and 53.7 °C in data set [1] (cell cycle stage: mitosis). Moreover, the “solubility change mitosis (log2)” value in data set [2] stood at 0.139. In addition, the “solubility in G1/S (log2)” value in data set [3] worked out at 0.681. Besides, the thermal stability score in data set [4] (setting [5]) was determined as 1.76; in data set [4] (cell cycle stage: mitosis) it was 0.882.
“MATDSWALAVDEQEAAVKSMTNLQIKEEKVKADTNGIIKTSTTAEKTDEEEKEDRAAQSLLNKLIRSNLVDNTNQVEVLQRDPNSPLYSVKSFEELRLKPQLLQGVYAMGFNRPSKIQENALPMMLAEPPQNLIAQSQSGTGKTAAFVLAMLSRVEPSDRYPQCLCLSPTYELALQTGKVIEQMGKFYPELKLAYAVRGNKLERGQKISEQIVIGTPGTVLDWCSKLKFIDPKKIKVFVLDEADVMIATQGHQDQSIRIQRMLPRNCQMLLFSATFEDSVWKFAQKVVPDPNVIKLKREEETLDTIKQYYVLCSSRDEKFQALCNLYGAITIAQAMIFCHTRKTASWLAAELSKEGHQVALLSGEMMVEQRAAVIERFREGKEKVLVTTNVCARGIDVEQVSVVINFDLPVDKDGNPDNETYLHRIGRTGRFGKRGLAVNMVDSKHSMNILNRIQEHFNKKIERLDTDDLDEIEKIAN [DDX19A]”: the melting temperature in data set [1] (cell cycle stage: G1/S) and in data set [1] (cell cycle stage: mitosis) was 49.9 °C in each case. For the same sequence, the “solubility change mitosis (log2)” value in data set [2] is -0.05. The “solubility in G1/S (log2)” value in data set [3] was 0.212. Also, the thermal stability score was 1.53 in data set [4] (setting [5]) and 0.923 in data set [4] (cell cycle stage: mitosis).
For the sequence “MATDWLGSIVSINCGDSLGVYQGRVSAVDQVSQTISLTRPFHNGVKCLVPEVTFRAGDITELKILEIPGPGDNQHFGDLHQTELGPSGAGCQVGINQNGTGKFVKKPASSSSAPQNIPKRTDVKSQDVAVSPQQQQCSKSYVDRHMESLSQSKSFRRRHNSWSSSSRHPNQATPKKSGLKNGQMKNKDDECFGDDIEEIPDTDFDFEGNLALFDKAAVFEEIDTYERRSGTRSRGIPNERPTRYRHDENILESEPIVYRRIIVPHNVSKEFCTDSGLVVPSISYELHKKLLSVAEKHGLTLERRLEMTGVCASQMALTLLGGPNRLNPKNVHQRPTVALLCGPHVKGAQGISCGRHLANHDVQVILFLPNFVKMLESITNELSLFSKTQGQQVSSLKDLPTSPVDLVINCLDCPENVFLRDQPWYKAAVAWANQNRAPVLSIDPPVHEVEQGIDAKWSLALGLPLPLGEHAGRIYLCDIGIPQQVFQEVGINYHSPFGCKFVIPLHSA [EDC3]”, the melting temperature stood at 50.1 °C in data set [1] (cell cycle stage: G1/S) and 50 °C in data set [1] (cell cycle stage: mitosis). Further, the “solubility change mitosis (log2)” value in data set [2] worked out at 0.245. In addition, the “solubility in G1/S (log2)” value in data set [3] was -0.0361. Further, the thermal stability score came to 1.79 in data set [4] (setting [5]) and 1.47 in data set [4] (cell cycle stage: mitosis).
Consider “MATEHPEPPKAELQLPPPPPPGHYGAWAAQELQAKLAEIGAPIQGNREELVERLQSYTRQTGIVLNRPVLRGEDGDKAAPPPMSAQLPGIPMPPPPLGLPPLQPPPPPPPPPPGLGLGFPMAHPPNLGPPPPLRVGEPVALSEEERLKLAQQQAALLMQQEERAKQQGDHSLKEHELLEQQKRAAVLLEQERQQEIAKMGTPVPRPPQDMGQIGVRTPLGPRVAAPVGPVGPTPTVLPMGAPVPRPRGPPPPPGDENREMDDPSVGPKIPQALEKILQLKESRQEEMNSQQEEEEMETDARSSLGQSASETEEDTVSVSKKEKNRKRRNRKKKKKPQRVRGVSSESSGDREKDSTRSRGSDSPAADVEIEYVTEEPEIYEPNFIFFKRIFEAFKLTDDVKKEKEKEPEKLDKLENSAAPKKKGFEEEHKDSDDDSSDDEQEKKPEAPKLSKKKLRRMNRFTVAELKQLVARPDVVEMHDVTAQDPKLLVHLKATRNSVPVPRHWCFKRKYLQGKRGIEKPPFELPDFIKRTGIQEMREALQEKEEQKTMKSKMREKVRPKMGKIDIDYQKLHDAFFKWQTKPKLTIHGDLYYEGKEFETRLKEKKPGDLSDELRISLGMPVGPNAHKVPPPWLIAMQRYGPPPSYPNLKIPGLNSPIPESCSFGYHAGGWGKPPVDETGKPLYGDVFGTNAAEFQTKTEEEEIDRTPWGELEPSDEESSEEEEEEESDEDKPDETGFITPADSGLITPGGFSSVPAGMETPELIELRKKKIEEAMDGSETPQLFTVLPEKRTATVGGAMMGSTHIYDMSTVMSRKGPAPELQGVEVALAPEELELDPMAMTQKYEEHVREQQAQVEKEDFSDMVAEHAAKQKQKKRKAQPQDSRGGSKKYKEFKF [SF3B2]”, for which the results for the melting temperature in data set [1] (cell cycle stage: G1/S) and in data set [1] (cell cycle stage: mitosis) were 50.5 °C and 49.9 °C, respectively. Also, the “solubility change mitosis (log2)” value in data set [2] worked out at 0.237. Also, in data set [3], the “solubility in G1/S (log2)” value is -0.165. Besides, the thermal stability score was -1.42 in data set [4] (setting [5]) and -2.09 in data set [4] (cell cycle stage: mitosis).
